Measurements reported in patent US6537785.

Assays:
RNAse B = RNAse B (UniProt P61823)
uteroferrin = uteroferrin (UniProt P09889)
Chain of UniProt P09889 (P09889 22-340): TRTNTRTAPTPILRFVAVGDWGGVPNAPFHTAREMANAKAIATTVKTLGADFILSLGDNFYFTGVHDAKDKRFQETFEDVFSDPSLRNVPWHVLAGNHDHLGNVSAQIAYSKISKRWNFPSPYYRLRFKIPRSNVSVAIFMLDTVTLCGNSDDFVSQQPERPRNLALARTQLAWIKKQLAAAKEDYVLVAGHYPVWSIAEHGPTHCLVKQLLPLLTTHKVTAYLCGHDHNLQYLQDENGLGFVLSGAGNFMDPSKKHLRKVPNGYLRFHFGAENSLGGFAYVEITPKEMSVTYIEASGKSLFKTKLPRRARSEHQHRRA

Chain of UniProt P61823 (P61823 27-150): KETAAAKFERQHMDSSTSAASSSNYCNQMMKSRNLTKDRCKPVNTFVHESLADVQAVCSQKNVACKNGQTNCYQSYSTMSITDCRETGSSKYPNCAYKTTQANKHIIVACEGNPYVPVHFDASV

bovine GlcNAc-phosphotransferase (UDP-N-acetylglucosamine: lysosomal enzyme N-Acetylglucosamine-1-phosphotransferase)
Km (transfer of GlcNAc-1-P to glycoprotein acceptor) (cathepsin D): Kms below 20 µM | Km (transfer of GlcNAc-1-P to glycoprotein acceptor) (RNAse B): the Km was not reached at the solubility limit of the protein (at 600 µM) | Km (transfer of GlcNAc-1-P to glycoprotein acceptor) (uteroferrin): Kms below 20 µM
